The results in this text go back to PMC11463501 (bioRxiv, 2024).

Test [1] deals with T1, PTg S5 subunit (Bordetella pertussis, UniProt P04981 35-133).
T1 sequence: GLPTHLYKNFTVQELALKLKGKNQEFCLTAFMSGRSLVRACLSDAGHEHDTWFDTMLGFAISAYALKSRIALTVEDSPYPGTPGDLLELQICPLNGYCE
The test is described as follows: cryo-EM structure.

Test [2] addresses PTg S2 subunit (Bordetella pertussis, UniProt P04978). The test is described as follows: cryo-EM structure.
Test [3] addresses PTg S3 subunit (Bordetella pertussis, UniProt P04979). The test is described as follows: cryo-EM structure.
The target in test [4] is Pertussis toxin (PT), enzymatically active (Bordetella pertussis; strain of bought …, UniProt P04977;P04978;P04979;P0A3R5;P04981). Put plainly: ELISA. For orientation: ELISA stands for enzyme-linked immunosorbent assay.
Pertussis toxin (PT), enzymatically active, sequence (P04978 28-226, chain 2 of 3): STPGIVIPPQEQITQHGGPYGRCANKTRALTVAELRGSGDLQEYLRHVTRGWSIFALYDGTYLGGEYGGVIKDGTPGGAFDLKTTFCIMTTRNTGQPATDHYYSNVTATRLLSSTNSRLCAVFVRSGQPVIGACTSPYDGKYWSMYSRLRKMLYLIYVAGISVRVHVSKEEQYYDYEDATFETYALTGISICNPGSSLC
Pertussis toxin (PT), enzymatically active, sequence (P04979 29-227, chain 3 of 3): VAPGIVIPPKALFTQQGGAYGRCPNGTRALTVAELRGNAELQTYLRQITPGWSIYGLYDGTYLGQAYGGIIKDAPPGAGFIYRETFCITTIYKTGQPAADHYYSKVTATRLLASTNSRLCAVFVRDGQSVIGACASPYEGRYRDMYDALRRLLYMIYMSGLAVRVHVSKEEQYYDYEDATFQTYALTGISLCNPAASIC
Pertussis toxin (PT), enzymatically active, sequence (P0A3R5 43-152, chain 4 of 3): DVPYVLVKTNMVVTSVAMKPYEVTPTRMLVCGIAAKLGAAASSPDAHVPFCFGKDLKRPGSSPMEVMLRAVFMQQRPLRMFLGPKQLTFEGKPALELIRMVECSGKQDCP
Test [5] has as its target PTg S5 subunit (Bordetella pertussis, UniProt P04981). Put plainly: cryo-EM structure.

PTg S3 subunit, sequence (P04979 29-227): as the sequence (P04979 29-227, chain 3 of 3) above
PTg S2 subunit, sequence (P04978 28-226): as the sequence (P04978 28-226, chain 2 of 3) above

B1: PTg S1 subunit ([change], [change]) (natural protein)
chain: DDPPATVYKYDSRPPEDVFQNGFTAWGNNDNVLDHLTGRSCQVGSSNSAFVSTSSSRRYTEVYLEHRMQEAVEAERAGRGTGHFIGYIYEVRADNNFYGAASSYFEYVDTYGDNAGRILAGALATYQSGYLAHRRIPPENIRRVTRVYHNGITGETTTTEYSNARYVSQQTRANPNPYTSRRSVASIVGTLVRMAPVIGACMARQAESSEAMAAWSERAGEAMVLVYYESIAYSF
In the case of B1, the binding result in test [1] was “binds”.

B2: hu11E6 Fab (Fab, V domains shown)
VH: EVQVVESGGGLVQPGRSLRLSCTTSGFTFTDYYVSWVRQAPGKALEWLGFIRNKVNGYTTEFSSSVKGRFTISRDNSKSILYLQMNSLKIEDTAVYYCARVSYYGRGWYFDYWGQGTTLTVSS
VL: DIVMTQSPSSLSASVGDRVTISCRASQDIDNYLSWFQQKPGGTVKLLIYYTSRLHSGVPSRFSGSGSGTDYTLTISSLQPEDIATYFCQQGNTFPWTFGGGTKLEIK
As to B2, the binding result in test [2] and in test [3] was “binds” in each case.

B3: hu1B7mut IgG (hu1B7 heavy chain S56A, Q61A, Q64A) (antibody, V domains shown)
VH: QVQLVQSGAEVKKPGASVKVSCKASGYKFTSYWMHWVRQAPGQGLEWIGNIFPGSGATNYAAKFAGRVTLTVDTSTSTAYMELSSLRSEDTAVYYCTRWLSGAYFDYWGQGTTVTVSS
VL: QIVLTQSPATLSVSPGERVTLTCSASSSVSFMYWYQQKPGRAPKPLIYLTSNLPSGVPARFSGSGSGTSYTLTINSLEAEDAATYYCQQWSSHPPTFGSGTKLEIK
With B3, the binding result in test [4] was “binds”.

B4: hu1B7 IgG (antibody, V domains shown)
VH: QVQLVQSGAEVKKPGASVKVSCKASGYKFTSYWMHWVRQAPGQGLEWIGNIFPGSGSTNYAQKFQGRVTLTVDTSTSTAYMELSSLRSEDTAVYYCTRWLSGAYFDYWGQGTTVTVSS
VL: QIVLTQSPATLSVSPGERVTLTCSASSSVSFMYWYQQKPGRAPKPLIYLTSNLPSGVPARFSGSGSGTSYTLTINSLEAEDAATYYCQQWSSHPPTFGSGTKLEIK
For B4, the binding result in test [4] is recorded as “binds”.

B5: hu1B7 Fab (Fab, V domains shown)
VH: QVQLVQSGAEVKKPGASVKVSCKASGYKFTSYWMHWVRQAPGQGLEWIGNIFPGSGSTNYAQKFQGRVTLTVDTSTSTAYMELSSLRSEDTAVYYCTRWLSGAYFDYWGQGTTVTVSS
VL: QIVLTQSPATLSVSPGERVTLTCSASSSVSFMYWYQQKPGRAPKPLIYLTSNLPSGVPARFSGSGSGTSYTLTINSLEAEDAATYYCQQWSSHPPTFGSGTKLEIK
On to B5, for which, in test [5], the binding result was “binds”.
